The values that follow come from patent publication US20210292423A1 (published 2021).

Positions count from the first letter of the chain named.

B1: 18H11-F10 anti-CD3 antibody (hybridoma supernatant) (antibody, V domains shown)
VH: EVQLVESGGGLVQPGRSLKLSCAASGFIFSDYYMAWVRQAPKKGLEWVATISISGSRTYYPDSVKGRFTVSRDNAKSSLYLQMNSLKSEDTATYYCATNNPGGWFVYWGQGTLVTVSS
VL: NIQMTQSPSLLSASVGDRVTLSCKAGQNINNDLAWYQQKLGEAPRLLIYNANSLQTGIPSRFSGSGSGADFTLTISSLQPEDVATYFCQQYSSGDTFGAGTKLELK
notes: rat IgG in hybridoma supernatant
B2: 4E7-C9 anti-CD3 antibody (hybridoma supernatant) (antibody, V domains shown)
VH: EVQVVETGGSLVQPGKSLKLTCATSGFTFSNAWMHWVRQSPEKQLEWVAQIKDKSNNYATYYAESLKGRFTISRDDPKRSIYLQMNSLREEDTAIYYCRYVHYGIGYAMDAWGQGTSVTVSS
VL: DVVMTQTPVSLSVSLGGQVSISCRSSQSLEHNNGNTYLSWYLQKPGQSPQPLIYKVSNRFSGISDRFSGSGSGTDFTLKISRVEPDDLGVYYCGQGTQYPFTFGPGTKLELK
notes: as for B1
B3: 16F8-A7 anti-CD3 antibody (hybridoma supernatant) (antibody, V domains shown)
VH: VETGGNLVQPGKSLKLTCATSGFTFSNAWMHWVRQSPEKQLEWVAQIKAKSNNYATYYAESVKGRFTISRDDSKSSVYLQMNSLKEEDTAIYYCRYVNYGLAPMDVWGQGTSVTVSS
VL: B2 VL with E30V, P51L, I63F, P105A
notes: as for B1
B4: 11F3-B9 anti-CD3 antibody (hybridoma supernatant) (antibody, V domains shown)
VH: EVQLVETGGSLVQPGKSLTLTCATSGFTFSNAWMHWVRQSPEKQLEWVAQIKAKSNNYATYYAESVKGRFTISRDDSKRSVYLQMNSLKEEDTAIYYCRYVNYGLAPMDVWGQGTSVTVSS
VL: B2 VL with E30V, N32D, P51L, I63F, P105A
notes: as for B1
B5: 20E5-F10 anti-CD3 antibody (hybridoma supernatant) (antibody, V domains shown)
VH: EVQLVETGENLVQPGKSLRLTCATSGFSFSNAWMHWIRQSPEKQLEWVAQIKDKSNNYATYYAESVNGRFTISRDDSKSSIYLHMDNLKEEDSAIYYCRYVHYGVRFFYTMDVWGQGTSVTVSS
VL: B2 VL with G17D, S25P, E30V, Q50H, P105S, L111I
notes: as for B1
B6: 3H6-D2 anti-CD3 antibody (hybridoma supernatant) (antibody, V domains shown)
VH: EVQLVETGGRLVQPGKSLKLTCATSGFTFSNAWMHWVRQSPEKQLEWVAQIKDKSNNYATYYAESVKGRFTISRDDSKSIIYLQMNSLKEEDTAIYYCRALTYYGYKRDAMDGWGHGTSVTVSS
VL: B2 VL with E30V, P51L, P105A
notes: as for B1
B7: 13H2-C3 anti-CD3 antibody (hybridoma supernatant) (antibody, V domains shown)
VH: B4 VH with V2E, Q3E, T19K, E42D, R79S, S87N, N102H, V110A
VL: B2 VL with E30V, P45A, P51L, T77I, Y91F, P105A
notes: rat IgG in hybridoma supernatant; also called 13H2-C2
B8: 18G9-H11 anti-CD3 antibody (hybridoma supernatant) (antibody, V domains shown)
VH: EVQLVETGGSLVQPGKSLKLTCATSGFTFSNAWIQWVRQSPEKQLEWVAQIKAKSNNYATYYAESVKGRFTISRDDSKSSVYLQMNSLKEEDTALYYCTWRHYYSSHTMDAWGQGTLVTVSS
VL: B2 VL with E30V, P51L, E84A, D86T, T97S, P105A
notes: as for B1
B9: 10F4-C10 anti-CD3 antibody (hybridoma supernatant) (antibody, V domains shown)
VH: EVQLVETGGSLVQPGKSLKITCATSGFTFSNAWMHWVRQSPEKQLEWVAQIKAKSNNYATYYAESVKGRFTISRDDSKSSIYLQMNSLKEEDTAIYYCRAVNYGNYPLDYWGQGVMVTVSS
VL: B2 VL with E30V, Y41C, P51L, P105A
notes: as for B1
B10: 10E6-G6 anti-CD3 antibody (hybridoma supernatant) (antibody, V domains shown)
VH: EVQLVETGGGLVQSGKSLKLTCATSGFTVTNAWMHWVRQSPEKQLEWVAQIKAKSNNYETYYAESVKGRFTISRDDSKSSVYLQMNSLKEEDTAIYYCRGTQYGYNPFDYWGQGVMVTVSS
VL: B2 VL with T7S, E30V, N35Y, P51V, L52F, V83I, Q98H, P105S, L111I
notes: as for B1
B11: 12G3-E8 anti-CD3 antibody (hybridoma supernatant) (antibody, V domains shown)
VH: EVRVVETGGSLVQPGKSLKLTCATSGFTFSLAWMHWVRQSPEKKLEWVAQIKDKANNYATYYAESVKGRFTISRDDSKRSVYLQMNRLKEEDTAIYYCRGVYYGFSMTPFDYWGQGVMVTVSS
VL: B2 VL with V3A, E30V, P51V, T74A, P105A
notes: as for B1
B12: 11D7-C3 anti-CD3 antibody (hybridoma supernatant) (antibody, V domains shown)
VH: B9 VH with L4F, I20L, I81V, I95T, A100G, V101L, N102Y, N105L, Y106S, L108S
VL: B2 VL with E30V, P51L, Q98H, P105S, L111I
notes: as for B1
B13: 5B1-G2 Fab (Fab, V domains shown)
VH: EVQVVETGGSLVQPGKSLKLTCATSGFSFSNAWMHWVRQSPEKQLEWVAQIKDKANNYATYYAESVKGRFTISRDDSKGSIYLQMNSLKEEDTAVYYCRGLYYGLFPSDYWGQGVMVTVSS
VL: B2 VL with E30V, Q43L, P51L, S70G, V83L, V90I, P105S, L111I
B14: 12D2-E5 Fab (Fab, V domains shown)
VH: EVKLVESGGGLVQPGRSLRLSCAASGFNFYAYWMGWVRQAPGKGLEWIGEIKKDGTTINYTPSLKDRFTISRDNAQNTLYLQMTKLGSEDTALYYCAREERDGYFDYWGQGVMVTVSS
VL: QFVLTQPNSVSTNLGSTVKLSCKRSTGNIGSNYVNWYQQHEGRSPTTMIYRDDKRPDGVPDRFSGSIDRSSNSALLTINNVQTEDEADYFCQSYSSGIVFGGGTKLTVL
B15: 3B10-E6 anti-CD123 rat IgG (hybridoma supernatant) (antibody, V domains shown)
VH: QVQLQQSGPELRRPGSSVRLSCKASGYRIKDFLIHWIKNRPEHGLEWIGWIDPEDGETKYAQKFQTKATLTADTSSNTAYMQLSSLTSEDTATYFCARWGDVYYGLMRGHVMDAWGQGTSVTVSS
VL: DVLMTQTPVSLPVSLGGQVSISCRSSQSLVHSDGDTYLHWYLQKPGQSPQLLIYRVSNRFSGVPDRFSGSGSGTDFTLKISRVEPEDLGLYYCLQTTHFPPWTFGGGTKLEMK
notes: rat IgG; also called BFX - 3B10
B16: 6D6-B8 anti-CD123 rat IgG (hybridoma supernatant) (antibody, V domains shown)
VH: QVQLQESGPTLVKPGDSVKMSCKASAYTFTDNIIHWVKQSHGKSLDWIGYINPYSGGTNYNGWFRSKATLTVDKSSSTAYMEFSRLTSDDSAIYYCALNYGSYYAMDAWGQGTSVTVSS
VL: DIQMTQSPASLSASLGETVTIDCRPSEDIFNNLAWYQQKPGNSPQLLIYDANSLADGVPSRFSGSGSGTQYSLMIIRLQSEDVASYFCHQYNIYPYTFGAGTKLELK
notes: rat IgG; also called BFX - 6D6

T2 sequence (P04234 22-171 limits assumed, stated change not applied): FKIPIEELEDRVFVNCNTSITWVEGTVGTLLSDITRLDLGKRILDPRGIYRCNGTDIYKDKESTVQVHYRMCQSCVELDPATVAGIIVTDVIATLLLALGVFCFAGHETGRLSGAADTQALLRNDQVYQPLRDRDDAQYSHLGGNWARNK
T4 sequence (P26951 19-378): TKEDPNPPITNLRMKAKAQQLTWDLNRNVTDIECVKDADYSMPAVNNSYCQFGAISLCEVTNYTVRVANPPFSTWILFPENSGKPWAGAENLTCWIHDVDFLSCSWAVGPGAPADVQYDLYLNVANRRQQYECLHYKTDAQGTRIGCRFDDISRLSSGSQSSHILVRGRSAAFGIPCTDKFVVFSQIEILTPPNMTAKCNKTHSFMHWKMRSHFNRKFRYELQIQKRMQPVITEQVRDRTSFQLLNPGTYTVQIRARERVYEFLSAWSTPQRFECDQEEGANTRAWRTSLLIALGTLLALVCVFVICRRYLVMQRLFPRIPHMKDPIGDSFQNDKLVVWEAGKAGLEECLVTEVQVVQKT

One assay deals with T1, human CD3ε/δ-Fc fusion protein (soluble recombinant CD3ε/δ complex) (human, UniProt P04234 22-105).
T1 construct: also called huCD3ε/δ; huCD3; not shown: hinge, CH2, CH3 of human IgG with tag
T1 sequence (chain, as listed by the source mutant, chain 1 of 2): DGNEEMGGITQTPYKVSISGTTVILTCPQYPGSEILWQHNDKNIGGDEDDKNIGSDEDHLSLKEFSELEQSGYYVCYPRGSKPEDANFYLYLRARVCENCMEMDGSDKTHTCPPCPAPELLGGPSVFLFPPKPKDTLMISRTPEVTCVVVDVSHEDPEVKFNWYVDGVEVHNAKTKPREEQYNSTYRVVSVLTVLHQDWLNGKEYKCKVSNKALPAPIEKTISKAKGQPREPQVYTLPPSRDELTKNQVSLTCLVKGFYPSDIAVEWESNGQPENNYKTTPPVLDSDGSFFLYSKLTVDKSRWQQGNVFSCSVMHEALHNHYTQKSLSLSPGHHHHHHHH
T1 sequence (P04234 22-105, stated change not applied, chain 2 of 2): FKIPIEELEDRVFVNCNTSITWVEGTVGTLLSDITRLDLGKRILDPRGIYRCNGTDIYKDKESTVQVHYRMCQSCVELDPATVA
Nature of the assay: SPR single point, hybridoma supernatant. How it is done: Rats with positive sera were scarified and B cells were fused with mouse myeloma cells. The resulting hybrndomas were screened on HEK293 cells transfected with human or cynomoligus CD3ε and CD3δ expression plasmids, on Jurkat E6.1 (CD3+) and Jurkat T3.5 (CD3-) by flow cytometry. Supernatant of Hybridoma clones was used to assess by surface plasmon resonance single point kinetic against human and Macaca fascicularis CD3ε/δ complex by fixing the analyte at 25 nM (data presented in table 3).
Take B1: the “RU at 25 nM” value came out at 35 RU. The same measure, in the same setting: the same measure for B2: 2.5 RU; for B3: 17.5 RU; for B4: 22 RU. On the same count and under the same terms, in the case of B5 it was 12 RU; in that of B6, 9.5 RU. On the same count and under the same terms, in the case of B7 it was 16 RU. As for B8, the “RU at 25 nM” value is 7 RU. The same measure, in the same setting: in the case of B9 it was 22 RU; in that of B10, 10.5 RU. Same read-out and setting: in the case of B11 it was 24 RU. Same read-out and setting: in the case of B12 it was 17 RU.

Another assay concerns the target T2, human CD3δ expressed alone on HEK293F cells (human, UniProt P04234 22-171).
T2 construct: entry includes the signal peptide; also called huCD3δ
Nature of the assay: flow cytometry, HEK293F transfected with huCD3δ. How it is done:
To analyze binding of antibodies to human CD3ε and human CD3δ expressed on the surface of cells, HEK293F cells were transfected with both constructs either alone or in co-transfection and signals were measured by flow cytometry. For transfection procedure FuGENE HD Transfection Reagent (Promega, #E2311) was used according to manufacturer's protocol.
Cells were incubated on a shaker at 37° C. and 5% CO2. At day one to three after transfection cells were harvested and binding of antibodies was analyzed by flow cytometry.
Antibodies for staining were seeded at 1 μg in 50 μl per well Stain Buffer with FBS (BD Pharmingen) in 96-well U-bottom suspension culture plates (Greiner bio-one). Harvested transfected cells were resuspended in Stain Buffer with FBS and were added at 50 μl per well to the antibodies. Cells were incubated at 4° C. in the dark for 30 min and were washed twice. 0.5 μg secondary antibody Goat F(ab′)2 Anti-Human IgG-FITC (Beckman Coulter, #732598) or Goat F(ab′)2 Anti-Human kappa-PE (Southern Biotech, #206209), respectively, in combination with 0.5 μg 7-AAD per well was added in 100 μl Stain Buffer with FBS. Cells were incubated at 4° C. in the dark for 15 min and were washed twice. For measurement, cells were resuspended in 200 μl Stain Buffer with FBS. Cells were measured using the MACSQuant (Miltenyi Biotec) or LSRII (BD) flow cytometer, respectively. Further data analyses were performed using the FlowJo software (Tree Star, Inc.).
(Flow cytometry measures light scatter and fluorescence of single cells or particles in a stream.)
As for B13, the binding result was “no binding (tested: <20% of binding of huCD3e + huCD3d)”. Still for that read-out and setting: in the case of B14 it was “no binding (tested: <20% of binding of huCD3e + huCD3d)”.

For another assay, the target named is T3, Macaca fascicularis CD123 Fc-fusion protein (Macaca fascicularis).
T3 construct: also called cyno CD123-Fc
T3 sequence (chain, as listed by the source limits assumed): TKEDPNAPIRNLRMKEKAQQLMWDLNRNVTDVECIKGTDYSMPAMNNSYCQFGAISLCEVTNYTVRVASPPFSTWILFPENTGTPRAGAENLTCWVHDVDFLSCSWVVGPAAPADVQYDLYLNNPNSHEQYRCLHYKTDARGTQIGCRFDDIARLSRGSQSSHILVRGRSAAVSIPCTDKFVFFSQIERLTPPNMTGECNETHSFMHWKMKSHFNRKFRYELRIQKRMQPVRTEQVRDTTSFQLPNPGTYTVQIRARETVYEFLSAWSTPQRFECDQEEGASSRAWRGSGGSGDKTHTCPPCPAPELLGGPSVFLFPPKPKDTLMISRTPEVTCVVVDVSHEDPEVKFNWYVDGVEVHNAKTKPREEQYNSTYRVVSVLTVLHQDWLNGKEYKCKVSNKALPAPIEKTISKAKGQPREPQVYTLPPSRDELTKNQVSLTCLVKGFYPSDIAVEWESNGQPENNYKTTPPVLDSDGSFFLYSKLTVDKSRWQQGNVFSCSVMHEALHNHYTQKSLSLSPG
Description: SPR Proteon XPR36, rat IgG captured, CD123-Fc analyte. As to the method:
Screening of anti-CD123 rat IgGs for binding affinities to human CD123 and cross-reactivities to cyno CD123 was performed with hybridoma supernatants using a Proteon XPR36 (Biorad) in a one-shot kinetics approach. A capture assay was established using a goat anti-rat IgG (112-005-071, Jackson Immuno Research). The capture antibody was coated on GLC chips (176-5011, Biorad) to approx. 8000 RU in the vertical direction using the amine coupling kit (176-2410, Biorad). […] Binding kinetics with human and cyno CD123-Fc fusion protein was measured at 100 μl/min in the horizontal direction with 120 sec. and 600 sec. for association and dissociation, respectively. The CD123-Fc proteins were used in twofold dilutions from 6 nM to 100 nM. PBSET buffer (176-2730, Biorad) was used as assay buffer. Regeneration was achieved by injection of 10 mM Glycine buffer pH 1.5 for 18 sec at 30 μl/min. Data processing and analysis was performed using ProteonManager software v3.0. Fitting of the sensorgrams was done with a 1:1 Langmuir model.
As usually defined, the Kd is the constant that tells how readily two partners part at equilibrium. B15: the equilibrium dissociation constant (Kd) was determined as 0.27 nM.

Another assay concerns the target T4, human CD123 (IL3RA) on cells (human, UniProt P26951 19-378).
T4 construct: also called CD123 transfected HEK293; THP-1
Nature of the assay: flow cytometry, CD123 transfected HEK293, hybridoma supernatant. How it is done:
Cells were resuspended in 200 μl Stain Buffer with FBS per well and were measured using the MACSQuant (Miltenyi Biotec) or LSRII (BD) flow cytometer. Further data analyses were performed using the FlowJo software (Tree Star, Inc.). Read out was percentage of cells positive for antibody binding. Cells treated only with the secondary but no primary antibody were used to set the gates. Curves were calculated by XLfit (Algorithm 205).
What is called EC50 is the midpoint of the concentration-response curve. Molecule B15 yielded an EC50 of 2 ng/mL. On the same count and under the same terms, in the case of B16 it was 0.9 ng/mL.
